Molecular target: Cyclophilin A (Homo sapiens, UniProt P62937)
Assay: SPR

B1: HIV-1 capsid protein CA (unassembled) (protein)
chain: not shown
  Kd: ~27 µM
